# Data as given in US20180021429A1, “ANTICANCER AGENTS OR ANTIMETASTATIC AGENTS USING FSTL1 AND COMBINATION DRUG THEREOF” (PHARMA FOODS INTERNATIONAL CO., LTD., priority 2015, published 2018).
# B1: #6-55: chicken-mouse chimeric anti-FSTL1 antibody clone; variable regions SEQ ID NO: 783 (light), 785 (heavy) (antibody, V domains shown)
# VH: AVTLDESGGGLQTPGGALSLVCKGSGFTFTSVTMQWVRQAPGKGLEWVASVCSGSSTYYAPAVKGRATISRDNGQSTVRLQLSNLRPEDTGTYYCAKIAGRARWSCTSAAYNIDAWGHGTEVIVSS
# VL: ASTQPSSVSAIPGETVKITCSGGGNNYGWYQQRSPGSAPVTVIYYNDNRPSNIPSRFSGSTSGSTSTLTITGVQADDEAIYYCGSWDSNTDSGIFGAGTTLTVL
# modifications: mouse constant regions
# Test system: mouse melanoma B16-F10
# Assay: In vivo melanoma B16-F10 model (Example 22)
# Parameters: species or system C57BL/6 mice
# Conditions: intraperitoneal 10 mg/kg on days 3 and 6
# Procedure: The drug efficacy of the anti-FSTL1 antibody was evaluated according to Examples 17 to 20 using other cancer-bearing models of C57BL/6 mice of the same strain as in Snail-positive tumor bone metastasis models. The “mouse melanoma B16-F10” is a parent line of the cell line forced to express Snail, which was transplanted in the bone metastasis models used in the preceding tests.
# 1. Experiment Group (n=5) 1. Mouse melanoma B16-F10+control IgG (anti-DNP mAb) 2. Mouse melanoma B16-F10+anti-FSTL mAb (#6-55)
# • Day 0: transplantation of tumor cells (1×10^6 cells subcutaneously & 1×10^6 cells intravenously) • Day 3: intraperitoneal administration of the antibody (first dose, corresponding to 200 μg/mouse=10 mg/kg) • Day 6: intraperitoneal administration of the antibody (second dose, corresponding to 200 μg/mouse=10 mg/kg) • Day 15 various immunological assays
# • Effects on the growth of subcutaneous tumor (calculation of tumor volume by tumor size measurement): measured 6, 10, and 14 days after tumor implantation (FIG. 16A) • Effects on weight loss (FIG. 16B)
molecule,measurement,setting,value
B1,weight loss,,suppressive activity against weight loss was also exhibited
same,subcutaneous tumor growth,vs control antibody,strongly suppressed
